Experimental findings from patent US20260042834A1, “ANTI-CORTICOTROPIN-RELEASING HORMONE ANTIBODIES AND POLYCYSTIC OVARY SYNDROME” (HBM ALPHA THERAPEUTICS, INC., priority 2022, published 2026) are described below.

Where a chain is given by its changes, count along the chain named. Where two headings read alike, the source gives them in different places.

Test [1] has as its system restraint-induced ACTH and corticosterone. In words: Wildtype mice restraint-stress model (ACTH and corticosterone). As to conditions: mAb 5 mg/kg. It counts as in vivo, mouse.
Another test concerns the target T1, human UCN1 (Homo sapiens, UniProt P55089).
T1 sequence (P55089 83-122 limits assumed): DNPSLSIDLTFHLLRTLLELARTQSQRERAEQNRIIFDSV
In words: Human UCN1 ELISA binding. Particulars: in words. The method, then:
Streptavidin (Thermo, Cat: 21125) was diluted in PBS to a concentration of 2 μg/ml. 100 μl of diluted streptavidin was added per well to ELISA microplates, and the plates were incubated overnight at 4° C. Plates were blocked with ELISA blocking solution (containing 2% w/v BSA, 0.05% (v/v) Tween-20, pH 7.4 PBS buffer) at 37° C. for 1 hour, and then incubated with 0.5 μg/mL CRH (NT biotin), 0.5 μg/mL CRH (CT biotin), 1 μg/mL human UCN1 (NT biotin), or 1 μg/mL human UCN1 (CT biotin) for 1 hour at 37° C. Plates were then washed and incubated with diluted anti-CRH antibody (Ab) at 15 μg/ml (100 nM, 10 diluted, 8 points) for 1 hour at 37° C. Subsequently, plates were washed and incubated with HRP-conjugated goat anti-human IgG (H+L) antibody (Jackson, Cat: 109-035-088) at 37° C. for 1 hour. […] 100 μL of ELISA stopping solution (Solarbio, Cat #: C1058) was added to terminate the reaction, and the optical density at 450 nm (OD450 nm) was determined by an ELISA plate reader (Molecular Devices, Spectra max 384 plus).
Streptavidin (Thermo, Cat: 21125) was diluted in PBS with a concentration of 2 μg/mL. […] 100 μL of ELISA stopping solution (Solarbio, Cat #: C1058) was then added to terminate the reaction, and the OD450 nm was determined by an ELISA plate reader (Molecular Devices, Spectra max 384 plus).
For orientation: In an ELISA, binding on a coated surface is turned into a signal by an enzyme label.

The target in test [2] is T2, N-terminal region plus central region, central region only, central region plus C-terminal region of CRH (Homo sapiens, UniProt P06850).
T2 construct: N-terminal region plus the central region (CT biotin), the central region only (NT biotin or CT biotin)
In words: ELISA determining the binding region of CRH. Particulars: dash = no binding. The method, then:
Streptavidin (Thermo, Cat: 21125) was diluted in PBS to a concentration of 2 μg/ml. 100 μl of diluted streptavidin was added per well to ELISA microplates, and the plates were incubated overnight at 4° C. Plates were blocked with ELISA blocking solution (containing 2% w/v BSA, 0.05% (v/v) Tween-20, pH 7.4 PBS buffer) at 37° C. for 1 hour, and then incubated with 1 μg/mL N-terminal region plus the central region (CT biotin), the central region only (NT biotin or CT biotin), or the central region plus C-terminal region (NT biotin) of CRH for 1 hour at 37° C. Plates were then washed and incubated with diluted anti-CRH antibody (Ab) at 15 μg/ml (100 nM, 10 diluted, 8 points) for 1 hour at 37° C. Subsequently, plates were washed and incubated with HRP-conjugated goat anti-human IgG (H+L) antibody (Jackson, Cat: 109-035-088) at 37° C. for 1 hour. 100 μL of 3,3′,5,5′-tetramethylbenzidine (TMB) substrate (Biopanda, Cat: TMB-S-003) was added, and the plates were incubated at room temperature for 15 minutes. 100 μL of ELISA stopping solution (Solarbio, Cat #: C1058) was added to terminate the reaction, and the optical density at 450 nm (OD450 nm) was determined by an ELISA plate reader (Molecular Devices, Spectra max 384 plus).

B1: PR302334-24: humanized variant of Series 9 mAb PR302334; VH SEQ ID NO: 275, VL SEQ ID NO: 328 (antibody, V domains shown)
VH: EVQLVESGGGLVKPGGSLRLSCAASGFTFSTYAMSWVRQAPGKGLEWVASIRSGGTTYYPDSVKGRFTISRDNAKNSLYLQMNSLRAEDTAVYYCTRGIDWGQGTTVTVSS
VL: DIVMTQSPDSLAVSLGERATINCKASQSVNNDVAWYQQKPGQPPRLLIYYASNRYTGVPDRFSGSGSGTDFTLTISSLQAEDLAVYFCQQDYSSWTFGGGTKVEIK
modifications: PR302334-16 VH, PR302334-24 VH, PR302334-25 VH; PR302334-10 VL, PR302334-24 VL, PR302334-26 VL, PR302334-4 VL
Consider B1, for which the “efficacy in reducing plasma ACTH and corticosterone levels versus SSR125543A at 30 mg/kg” value in test [1] was “more efficacious”.

B2: PR302334-26: humanized variant of Series 9 mAb PR302334; VH SEQ ID NO: 277, VL SEQ ID NO: 328 (antibody, V domains shown)
VH: B1 VH with K13Q, A74S
VL: B1 VL
modifications: PR302334-18 VH, PR302334-26 VH, PR302334-27 VH; PR302334-10 VL, PR302334-24 VL, PR302334-26 VL, PR302334-4 VL
B2: the “binding to human UCN1 peptides in ELISA” value with human UCN1 was “except for PR302334-26, bound to human UCN1”. For the same molecule, the EC50 was over 100 nM in test [2] (central plus C-terminal region CRH peptide, NT-biotin (SEQ ID NO: 483), read-out: ELISA EC50 C-Ter-CRH (NT-Bion)); over 100 nM in test [2] (central region CRH peptide, CT-biotin (SEQ ID NO: 485), read-out: ELISA EC50 Central-CRH (CT-Bion)); over 100 nM in test [2] (central region CRH peptide, NT-biotin (SEQ ID NO: 484), read-out: ELISA EC50 Central-CRH (NT-Bion)).

One may read the EC50 as the concentration needed to bring the measured effect to its halfway point.
